*1 amine or outer side, *2 acyl side, *3 side chain or, on linkers, in order; H or OH if unused. Bridges are numbered along the chain shown (N, C = ends). Where no end group is shown, it is not given here. [ ]: non-standard residue; d: D form. The star is where a group is joined. DM1‑SS‑ = DM1-SS- (SPDB) linker/toxin, COc1cc2cc(c1Cl)N(C)C(=O)C[C@H](OC(=O)[C@H](C)N(C)C(=O)CCSSCCCC(=O)*)[C@]1(C)O[C@H]1[C@H](C)[C@@H]1C[C@@](O)(NC(=O)O1)[C@H](OC)/C=C/C=C(\C)C2; TATA = O=C(CC[*:1])N1CN(C(=O)CC[*:2])CN(C(=O)CC[*:3])C1; DM1‑SS(SO3H)‑ = DM1-SS(SO3H)- (SO3H-SPDB) linker/toxin; DM1‑SS‑(Me)‑ = DM1-SS-(Me)- (SPP) linker/toxin; PABC = O=C(OCc1ccc(N[*:1])cc1)[*:2]; Glutaryl = O=C(CCCC(=O)[*:2])[*:1]; hArg = N=C(N)NCCCC[C@H](N)C(=O)O; Cit = NC(=O)NCCC[C@H](N)C(=O)O; βAla = NCCC(=O)O; Sar = CNCC(=O)O

In experiment [1] the target is Human EphA2 (in house, 0.95 mol biotin/monomer) (Human) (UniProt P29317). In words: SPR (Biacore), biotinylated human EphA2 on streptavidin chip.
Chain of Human EphA2 (in house, 0.95 mol biotin/monomer) (Human) (P29317 25-534 limits assumed): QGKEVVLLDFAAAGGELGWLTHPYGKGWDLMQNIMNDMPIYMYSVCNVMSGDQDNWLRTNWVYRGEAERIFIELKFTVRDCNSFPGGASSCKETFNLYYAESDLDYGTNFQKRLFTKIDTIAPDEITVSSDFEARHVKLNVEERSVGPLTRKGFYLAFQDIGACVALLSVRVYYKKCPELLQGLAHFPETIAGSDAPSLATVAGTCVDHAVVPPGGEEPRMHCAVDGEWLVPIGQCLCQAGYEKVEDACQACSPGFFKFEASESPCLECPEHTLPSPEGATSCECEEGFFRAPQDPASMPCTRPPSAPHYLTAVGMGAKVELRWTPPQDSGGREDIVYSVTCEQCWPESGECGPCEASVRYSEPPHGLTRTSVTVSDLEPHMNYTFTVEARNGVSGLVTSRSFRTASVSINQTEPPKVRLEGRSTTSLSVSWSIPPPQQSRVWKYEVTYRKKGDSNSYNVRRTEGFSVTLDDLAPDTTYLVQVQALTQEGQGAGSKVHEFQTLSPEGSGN
Experiment [2] addresses Mouse EphA2 Fc fusion (R&D Systems 639-A2) (Mouse) (UniProt Q03145). Kind of experiment: SPR (Biacore), mouse EphA2-Fc captured by anti-human IgG.
Experiment [3] concerns the target Rat EphA2 (in house, 1.4 mol biotin/monomer) (Rat) (UniProt D3ZBN3). Kind of experiment: SPR (Biacore), biotinylated rat EphA2 on streptavidin chip.
Experiment [4] addresses T1, Mouse EphA2 (Ecto) (Mouse, UniProt Q03145 26-538).
T1 construct: extracellular domain
Kind of experiment: FP competition vs Reference Compound C.
Procedure: The gain used for analysis was determined for each tracer at the end of the 60 minutes where there was no protein in the well. […] “Lig” was a defined value of the concentration of tracer used.

Chain of Mouse EphA2 Fc fusion (R&D Systems 639-A2) (Mouse) (Q03145 26-538): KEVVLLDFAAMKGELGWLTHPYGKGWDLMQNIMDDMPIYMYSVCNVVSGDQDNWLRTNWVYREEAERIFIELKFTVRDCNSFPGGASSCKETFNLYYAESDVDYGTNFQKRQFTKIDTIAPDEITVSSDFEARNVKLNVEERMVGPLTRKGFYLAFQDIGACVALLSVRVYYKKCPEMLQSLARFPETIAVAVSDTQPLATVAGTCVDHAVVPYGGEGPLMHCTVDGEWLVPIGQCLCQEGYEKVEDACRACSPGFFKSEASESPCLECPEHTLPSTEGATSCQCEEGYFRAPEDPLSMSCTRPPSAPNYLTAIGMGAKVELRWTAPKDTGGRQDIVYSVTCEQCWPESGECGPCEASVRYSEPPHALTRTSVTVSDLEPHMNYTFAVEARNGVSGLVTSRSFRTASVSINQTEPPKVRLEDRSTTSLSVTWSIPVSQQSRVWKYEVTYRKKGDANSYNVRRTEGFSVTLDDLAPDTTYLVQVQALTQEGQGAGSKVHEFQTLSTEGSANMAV
T1 sequence (Q03145 26-538): as above

Consider {DM1‑SS‑(Me)‑}-[βAla][Sar][Sar][Sar][Sar][Sar][Sar][Sar][Sar][Sar][Sar]A[hArg]DCPLVNPLCLHPGWTC (linker 15-22-29 via TATA; not fully specified (C-terminus)) [BCY6032], for which, in experiment [1], the Kd is 2.1 nM, the koff is 0.00527 s⁻¹, the kon is 2.52e+06 M⁻¹ s⁻¹ and the t1/2 was 2.2 min.
Take {MMAE-PABC-Cit-Val-Glutaryl}-[βAla][Sar][Sar][Sar][Sar][Sar][Sar][Sar][Sar][Sar][Sar]A[hArg]DCPLVNPLCLHPGWTC (linker 15-22-29 via TATA; not fully specified (C-terminus)) [BCY6033]: in experiment [2], the Kd is 21.8 nM, the koff was 0.00637 s⁻¹, the kon was 292000 M⁻¹ s⁻¹ and the t1/2 amounted to 1.8 min. Besides, in experiment [3], the Kd was 166 nM, the koff is 0.00442 s⁻¹, the kon stood at 26700 M⁻¹ s⁻¹ and the t1/2 was found to be 2.6 min. In addition, in experiment [1], the Kd is 3.41 nM, the koff is 0.00343 s⁻¹, the kon was 999000 M⁻¹ s⁻¹ and the t1/2 worked out at 3.5 min.
Consider ACPLVNPLCLHPGWTCLHG (linker 2-9-16 via TATA; not fully specified (C-terminus)) [Bicycle Compound 73], for which the Ki in experiment [4] is 7.27 nM.
As to {DM1‑SS(SO3H)‑}-[βAla][Sar][Sar][Sar][Sar][Sar][Sar][Sar][Sar][Sar][Sar]A[hArg]DCPLVNPLCLHPGWTC (linker 15-22-29 via TATA; not fully specified (C-terminus)) [BCY6082], in experiment [2], the Kd is 18.3 nM, the koff is 0.00597 s⁻¹, the kon was determined as 327000 M⁻¹ s⁻¹ and the t1/2 was 1.9 min. Further, in experiment [3], the Kd was found to be 28.8 nM, the koff stood at 0.00364 s⁻¹, the kon was found to be 126000 M⁻¹ s⁻¹ and the t1/2 was determined as 3.2 min. In experiment [1], this molecule displayed a Kd of 2.42 nM, a koff of 0.00242 s⁻¹, a kon of 987000 M⁻¹ s⁻¹ and a t1/2 of 4.8 min.
In experiment [1], {DM1‑SS‑}-[βAla][Sar][Sar][Sar][Sar][Sar][Sar][Sar][Sar][Sar][Sar]A[hArg]DCPLVNPLCLHPGWTC (linker 15-22-29 via TATA; not fully specified (C-terminus)) [BCY6031] displayed a Kd of 1.99 nM, a koff of 0.00495 s⁻¹, a kon of 2.49e+06 M⁻¹ s⁻¹ and a t1/2 of 2.3 min.
The like results for {MMAE-PABC-Cit-Trp-Glutaryl}-[βAla][Sar][Sar][Sar][Sar][Sar][Sar][Sar][Sar][Sar][Sar]A[hArg]DCPLVNPLCLHPGWTC (linker 15-22-29 via TATA; not fully specified (C-terminus)) [BCY6034] were, in that order, 1.64 nM, 0.00365 s⁻¹, 2.23e+06 M⁻¹ s⁻¹ and 3.2 min.

The values are drawn from patent publication US20260124312A1 (Bicycle, published 2026).
